The series can be described thus: soluble on expression in E. coli; label from the status in PepcDB or PDB records.
“MPSSTSSSLENLSVSVCAAGDSAAYQRNSVFGDDVVIVAAYRSPLCKAKRGGLKDTYPDDILAPVLKALIEKTNINPAEVGDIVVGSVLGAGSQRASECRMAAFYAGFPETVPVRTVNRQCSSGLQAVADVAAAIKAGFYDIGIGAGLESMTANPMAWEGSVNPKVKTMAQAQDCLLPMGITSENVAQKFSITRQEQDQAAVGSHRKTAAATAAGRFKDEIIPIKTKIVDPKTGDEKPVTISVDDGIRPGTSLADLAKLKPVFRKDGSTTAGTSSQVSDGAGAVLLMKRSIALQKGLPILGVFRTFAAVGVPPSIMGIGPAVAIPAAVKAAGLQIDDIDLFEINEAFASQFVYCQKKLEIDPQKINVNGGAMAIGHPLGATGARCVATLLHEMKRRGRDCRFGVVSMCIGTGMGAAAVFERGDACDELCNAKAKHHHHHH”: the “soluble on expression in E. coli” value is on record as “soluble”.

Consider “MKEDPRIIKTLSKLQKAFVMLLKTYDAGDINVRQISDEAGVTRGAFYSHFSDKKEFVNFTINELVGSLFNSSLKDSVGFVDEVNHKNAHGTNVLSVSNFFDKVAADYQTYTIVLDTEKLPQFTEVLKERLNSEIKTFAEYYGKKVKHDGFPIEVLSSYYVNGLIGMIRMWLDEGMVYTSHYMANAAKKILGTKIQIDSQNIDLSDFFVDLEHHHHHH”, for which the “soluble on expression in E. coli” value is given as “soluble”.

With “MPKVGMQPIRRQQLIQATLTAVDQVGMGDASIALIARLAGVSNGIISHYFQDKNGLIAATMRHLMNALIQNVRERRQALTEDSPRAHLQVIIEGNFDASQVSGPAMKTWLAFWATSMHHPSLHRLQRINDHRLYSNLCCQFRRTLPLEQARNAARGLAALIDGLWLRGALSGDAFDTEQAQRIAYEYMDFQLAKSAS”, the “soluble on expression in E. coli” value was “not soluble”.

Consider “MHQFTSKQDFCHWFNQFQHPQLVENWADIHGVVTITAQGEVKITLPFASNELQRTLQEWIQQQQAFKAVAAFPYHIELGVKALETQVSNAVKGVKNIIAVSSAKGGVGKSTTAVNLALAIAQSGAKVGLLDADIYGPSVPMMLGQEDAKPEVRDGKWMEPIFAHGIYTHSIGYLVNKSEAAIWRGPMASKALAQLLNETDWPELDYLVIDMPPGTGDIQLTLSQQIPVTGTVLVTTPQDLALADARKGAAMFNKVNVPVVGVVENMSYHICSQCGATEHIFGMGGAEKMSQEFGLALLGQIPLHISMREDIDAGVPTVVRRPDSEHSGYYKQLADRVCSTMFWQGKAKPDAISFTMVNLEHHHHHH”, for which the “soluble on expression in E. coli” value is listed as “not soluble”.

As for “MRLRAILASLALALTSLGAQAETIRVAIGTQDTTINCAAGGLLIRELGLLEKYLPRDGRYKDADYRVEWKNFTSGAPLTNEMVAGKLDFGAMADFPGTFNGVAFAAAGKRSLFISVLSGSTRGSGNGIVVPSGSPVQSLAELKGQTISVPFASTAHGMLLRAVAAQGWDPQRDVTIIAQPPEIAGSALQANKIAAHADFVPFAELFPNRGFARKIYDGSQANAPTFHGALVDAAYAERYPEVVVAYLRASIEANRLLAAEPEKYSELIEKVTGIEAEVNYLFHGPLGLQTRDQAWKPEYRQALATSIDTLKLLKKADRGLDVERFVDDRYIREAYRQAGLDYQAALADYAPSPLRASDARSGRPIEEFERVAQIWVKGEARVRHYASPESALADLAELKAQGKAIRAIYAQDRDSGIKLLANQAWFVRDGEGRLNAFLLREQAQDYARRHGGEVRDFAAASQQALALR”, the “soluble on expression in E. coli” value is listed as “not soluble”.

On to “MGSDKIHHHHHHMERVALACWDDFEAQLKKLDEEANAVEDARGDVRASGYLFRGHGDADYPLQTSLERFFARPLSLADYYRLALVAKPRLEAFTGRRWELPSQEAYAAWLEGAAGSTLDDYPAYDYLAYLRHHGFPSPLLDWTQSPYVAAFFAFRYPLPGAKAVAVYAYRDAPDAKTASSGAARIHRQGPYVSSDKRHFLQQSQYTFCTRTDDAGVVGYIGHEQAFRDVSPADRIRKFLIPLSARRQALMQLNRMNINAFSLFGSEDSLVETIAISDIYLRGGDL”, for which the “soluble on expression in E. coli” value is on record as “not soluble”.

For “EYVYIMTPYLILDSELEHAIQFAAERGVDVRIIMPGIPDKPIPYALAKTYYQALTKSGVKIYEYTLGFVHSKIFLSDNTKAVVGTINLDYRSLYHHFECAVYLYKVDAIQDIYRDYMDTLNKSRLVSLKDINNI”, the “soluble on expression in E. coli” value is recorded as “not soluble”.

“MSLKLKEEERMTEMILEYKNQLCKQNKLIQEKKENVLKMIAEVKGKEQESEELTAKIQELKEEYARKRETISTANKANEERLKGLQKSADLYRDYLGLEIRKIHGNKLQFIFTSIDPKNPESPYMFSMSINEAKEYEVYDSSPHLECLAEFQEKVRKTNNFSAFLANIRKAFIAKVHN”: the “soluble on expression in E. coli” value is “not soluble”.

Turning to “MWNMLIVAMCLALLGCLQAQELQGHVSIILLGATGDLAKKYLWQGLFQLYLDEAGRGHSFSFHGAALTAPKQGQELMAKALESLSCPKDMAPSHCAEHKDQFLQLSQYRQLKTAEDYQALNKDIEAQLQHAGLREAGRIFYFSVPPFAYEDIARNINSSCRPGPGAWLRVVLEKPFGHDHFSAQQLATELGTFFQEEEMYRVDHYLGKQAVAQILPFRDQNRKALDGLWNRHHVERVEIIMKETVDAEGRTSFYEEYGVIRDVLQNHLTEVLTLVAMELPHNVSSAEAVLRHKLQVFQALRGLQRGSAVVGQYQSYSEQVRRELQKPDSFHSLTPTFAGVLVHIDNLRWEGVPFILMSGKALDERVGYARILFKNQACCVQSEKHWAAAQSQCLPRQLVFHIGHGDLGSPAVLVSRNLFRPSLPSSWKEMEGPPGLRLFGSPLSDYYAYSPVRERDAHSVLLSHIFHGRKNFFITTENLLASWNFWTPLLESLAHKAPRLYPGGAENGRLLDFEFSSGRLFFSQQQPEQLVPGPGPAPMPSDFQVLRAKYRESPLVSAWSEELISKLANDIEATAVRAVRRFGQFHLALSGGSSPVALFQQLATAHYGFPWAHTHLWLVDERCVPLSDPESNFQGLQAHLLQHVRIPYYNIHPMPVHLQQRLCAEEDQGAQIYAREISALVANSSFDLVLLGMGADGHTASLFPQSPTGLDGEQLVVLTTSPSQPHRRMSLSLPLINRAKKVAVLVMGRMKREITTLVSRVGHEPKKWPISGVLPHSGQLVWYMDYDAFLG”, the “soluble on expression in E. coli” value is reported as “soluble”.

As for “MGSDKIHHHHHHMIYKMTDKDMEILFERISKDFQSFGSKEENGDIVFGDIQRFSDISEEKSSYPPKDFLIERSENILSIPRAEKRAVFGVKSCDLRGFYIMDKQILGKDPFYTVKRENTMFINFVCEKMCSGGFCTSFGGPVLDEYDVQVLHKNGYFYVEASDKYEKYLFGFSESDDQNVFEEHKKEFESLYGRLNVDGIENRMKWSSNLWNKFANYCISCGACNYSCPTCYCVDVYDDDDGRKKEWDSCILEGFTRTAAGNVRPELSERLRQRFYHKFKYYKLSRGAYLCTGCNRCVDDCPVDIDIKEVITHDYDRE”, the “soluble on expression in E. coli” value is “not soluble”.

Take “MELADVGAAASSQGVHDQVLPTPNASSRVIVHVDLDCFYAQVEMISNPELKDKPLGVQQKYLVVTCNYEARKLGVKKLMNVRDAKEKCPQLVLVNGEDLTRYREMSYKVTELLEEFSPVVERLGFDENFVDLTEMVEKRLQQLQSDELSAVTVSGHVYNNQSINLLDVLHIRLLVGSQIAAEMREAMYNQLGLTGCAGVASNKLLAKLVSGVFKPNQQTVLLPESCQHLIHSLNHIKEIPGIGYKTAKCLEALGINSVRDLQTFSPKILEKELGISVAQRIQKLSFGEDNSPVILSGPPQSFSEEDSFKKCSSEVEAKNKIEELLASLLNRVCQDGRKPHTVRLIIRRYSSEKHYGRESRQCPIPSHVIQKLGTGNYDVMTPMVDILMKLFRNMVNVKMPFHLTLLSVCFCNLKALNTAK”: the “soluble on expression in E. coli” value is recorded as “soluble”.

With “MTKLVLTPADTFFFKNHHATQAGETTVMESMFPPRPNTIYGALRAAYIYAYSSFDEFARGADERVKLWMGTPDERGAFRLHYCALADGDSLFLPLPLDYQVVEEGDSLKAYPLQLAKDRKPSSASTMWRLASSRREKTKSSQHRYVSLSEWKKALLLNQPIASLRTLSSFIVQEEKVGIQLDVSRRTAQEGFLYRVGKHRFLGDSSLVAYIDDGPDFSNVKWARIGGENRPWFIRQHPEEFRLWNDDEKRRIEQDIQRTKMAKIIFLSPAIFANGSRPAAMEGDRWTWPNGAVVTWLAAAIGRPELYGGWDIVRHRPKPRKWMIPAGSVIYVKIERDDDLRLVFSALDGIHLTDEGAEEGFGFAVLASVHESEEEL”, the “soluble on expression in E. coli” value is given as “not soluble”.

For “MGSDKIHHHHHHEVYIFTSHREPALDGLHYLYSYDGYHWDSIAGSWLKPEIGNKTPYYNYFTKQTEEQKYAPNSMMRDPSMTQGPDGTFHLVWTISWNGEQGFGYASSKDLIHWSEQREIKVMKDSLTNNVWAPEVFYDDEKEQFIVAWSSAIPVERYTAADSLGANKSHRAYYTTTKDFQTFTPAKAFYDPGFNSIDGFIVKRDKNDYVLIIKDNRKPGYSDLFCVSGPSAEGPYADPSVKFAPTYSEGPCAVKVGDEWLIYFDVYREGRFGAVSTKDFKNFTPIDDQISIPQGHKHGTIIEVPESVLLNLKAEEAKRFPQKD”, the “soluble on expression in E. coli” value is reported as “not soluble”.

For “MAHHHHHHMNIALSHIKKQRCARLYSISSSNNMENLSVAIKIHKYEQTENAPNITNYGYCSGFIKNLKINDDIYLTGAHGYFNLPNDAIQKNTNFIFIATGTGISPYISFLKKLFAYDKNNLYNRNSNYTGYITIYYGVYNEDSILYLNELEYFQKMYPNNINIHYVFSYKQNSDATSFYVQDEIYKRKTEFLNLFNNYKCELYICGHKSIRYKVMDILKSHDQFDEKKKKRVHVEVY”, the “soluble on expression in E. coli” value was “not soluble”.

As to “MGSDKIHHHHHHMKTDFTIREAQQTDTIALKELFQNTVLAVNSKDYSQAEVEDWASCGDDLSNIEEMIKTHYFIVAVNQQSQIVGFSSITSQGYLHSMFVHKDFQGKGIATMLLEEIERYAITAGIMRITSEVSLTARPFFEKKGYIVKEEQKRKANQLSLTNFWMAREMAKIKPYNGRIPACGVFCGGCPIYTREKRACRGAELNHSRCEKCKTFHLCCFGKKITHCFQCSNFPCTRFKGFAKRWQKHGQDFIENQKLLSEIGEVAFLEYYNKKVTD”, the “soluble on expression in E. coli” value is recorded as “not soluble”.

“MGSDKIHHHHHHMTISAQCNLQKLAFATTLAVTIVLSQGRAIGQVKHGSPIELAKADVSTAVRQDMANEVRIVGSLTPIRRSTLTSRVSSTIIELPVQIGDVVNAGDLLVRFERGALESAVTGRKAEADALSAQTELAEAVLERNTRLGERGAASEATRLAALADVLDLRAQLRSKQAEVSDAERSLSHAEVRAEFGGVIAARSVEEGQTVPLNTQLMTIVELNRLEVDAGVPTSRIPLIRLKQSVELTVEGFPGRTFSGEVARISPTADAGSRAVRVFIAVDNEEGLLRGGMFTIGDLRVDDQKDVIALPAASIRHDADGFFVLKVEAGVLQRRPVGLGRSWSDRDLVQVSGVSEGDVIVTAPLPDLVVNTPVIIEGI”: the “soluble on expression in E. coli” value was “not soluble”.

As for “MMNKNKKLMVMAGGTGGHVFPGLAVAKQLQQQGWQIRWLGTADRMEAELVPKHGIEIDFIQVKGLRGQGLMRLLKAPFQIVNAILQARRHLLTYQPDAVLGMGGYVSGPGGIAAWLLGIPVVLHEQNAVAGLTNQWLAKIARRVFQAFPGAFADASVVGNPVRQDVVQLAAPEQRFATRNGAIRILVMGGSQGARILNQTLPAVMAALGEGYEIRHQAGKNSQQDVAEAYAAAGVESAQVTEFIDDVADAYAWADLLICRSGALTVSEVSAAGVGAIFIPFMHKDRQQALNADHLVACGAAKMIEQPELSVEKLTQMVRELDRAQLLSMAQKARQAAKLDADKVVAQAIIAITE”, the “soluble on expression in E. coli” value is “not soluble”.

For the sequence “QLHLSLPSDTQASYSSTQRKQAEIMAEGFGPGINSPFLVVADAHSVDENAEILEPLIRAQNPAPGERKQAAANAAYQYIIQKYSVTPDVKHVQIVGLSKDGLAAQLLLTPESSPEDDVTKQLIDALLIKQDEVNNATGIRSGITGLIPVQQDVTNR”, the “soluble on expression in E. coli” value is reported as “not soluble”.

For “PISFGLSVRKSLAKGFSVETGLTYTLLSSDAKFADSDQKTEQKLHYLGIPLKANWNFLDKKLFTLYVSGGGMIEKCVYGKLGTEKETVKPLQFSVSGAVGAQFNATKRVGIYVEPGVAYFFDDGSDVQTIRKENPFNFNIQAGIRLTY”, the “soluble on expression in E. coli” value was “not soluble”.

Source of the values: the DeepSol protein solubility set.
